Assay results taken from the Human Domainome abundance scans (Beltran et al. 2025).
± gives the uncertainty stated by the source.

B1: Ubiquitin-protein ligase residues 30 to 86; numbered along this chain, Q05086 (parent)
chain: KHLIERYYHQLTEGCGNEACTNEFCASCPTFLRMDNNAAAIKALELYKINAKLCDPH

Variants of: B1
Test: abundance fitness (aPCA) (normalised: wild type 0, dead -1); higher = more abundant; growth selection in yeast, the domain comes from the species named
Settings: Homo sapiens

In order of rising abundance fitness:
1. KHLIERYYHQLTEGCGNEACTNEFPASCPTFLRMDNNAAAIKALELYKINAKLCDPH  -1.18 ± 0.23
2. KHLIERYYHQLTEGCGNEACTNEFLASCPTFLRMDNNAAAIKALELYKINAKLCDPH  -1.08 ± 0.13
3. KHLIERYYHQLTEGCGNEACTNEFRASCPTFLRMDNNAAAIKALELYKINAKLCDPH  -1.05 ± 0.12
4. KHLIERYYHQLTEGCGNEACTNEFWASCPTFLRMDNNAAAIKALELYKINAKLCDPH  -1.05 ± 0.23
5. KHLIERYYHQLTEGCGNEACTNEFAASCPTFLRMDNNAAAIKALELYKINAKLCDPH  -1.03 ± 0.18
6. KHLIERYYHQLTEGCGNEACTNEFKASCPTFLRMDNNAAAIKALELYKINAKLCDPH  -1.01 ± 0.21
7. KHLIERYYHQLTEGCGNEACTNEFGASCPTFLRMDNNAAAIKALELYKINAKLCDPH  -0.973 ± 0.1
8. KHLIERYYHQLTEGCGNEACTPEFCASCPTFLRMDNNAAAIKALELYKINAKLCDPH  -0.916 ± 0.14
9. KHLIERYYHQLTEGCGNEACTNEFVASCPTFLRMDNNAAAIKALELYKINAKLCDPH  -0.891 ± 0.11
10. KHLIERYYHQLTEGCGNEACTNEFHASCPTFLRMDNNAAAIKALELYKINAKLCDPH  -0.887 ± 0.21
11. KHLIERYYHQLTEGCGNEACTNEFNASCPTFLRMDNNAAAIKALELYKINAKLCDPH  -0.882 ± 0.32
12. KHLIERYYHQLTEGCGNEACTNEFMASCPTFLRMDNNAAAIKALELYKINAKLCDPH  -0.841 ± 0.15
13. KHLIERYYHQLTEGCGNEACTKEFCASCPTFLRMDNNAAAIKALELYKINAKLCDPH  -0.831 ± 0.1
14. KHLIERYYHQLTEGCGNEACTNEFYASCPTFLRMDNNAAAIKALELYKINAKLCDPH  -0.816 ± 0.095
15. KHLIERYYHQLTEGCGNEACTNEFFASCPTFLRMDNNAAAIKALELYKINAKLCDPH  -0.791 ± 0.17
16. KHLIERYYHQLTEGCGNEACTNEFSASCPTFLRMDNNAAAIKALELYKINAKLCDPH  -0.741 ± 0.14
17. KHLIERYYHQLTEGCGNEACTNEPCASCPTFLRMDNNAAAIKALELYKINAKLCDPH  -0.734 ± 0.088
18. KHLIERYYHQLTEGCGNEACTWEFCASCPTFLRMDNNAAAIKALELYKINAKLCDPH  -0.73 ± 0.11
19. KHLIERYYHQLTEGCGNEACTLEFCASCPTFLRMDNNAAAIKALELYKINAKLCDPH  -0.727 ± 0.065
20. KHLIERYYHQLTEGCGNEACTNEFEASCPTFLRMDNNAAAIKALELYKINAKLCDPH  -0.72 ± 0.21
21. KHLIERYYHQLTEGCGNEACTNEFCDSCPTFLRMDNNAAAIKALELYKINAKLCDPH  -0.67 ± 0.09
22. KHLIERYYHQLTEGCGNEACTREFCASCPTFLRMDNNAAAIKALELYKINAKLCDPH  -0.638 ± 0.069
23. KHLIERYYHQLTEGCGNEACTNEFIASCPTFLRMDNNAAAIKALELYKINAKLCDPH  -0.613 ± 0.28
24. KHLIERYYHQLTEGCGNEACTDEFCASCPTFLRMDNNAAAIKALELYKINAKLCDPH  -0.602 ± 0.089
25. KHLIERYYHQLTEGCGNEACTCEFCASCPTFLRMDNNAAAIKALELYKINAKLCDPH  -0.532 ± 0.13
26. KHLIERYYHQLTEGCGNEACTIEFCASCPTFLRMDNNAAAIKALELYKINAKLCDPH  -0.492 ± 0.14
27. KHLIERYYHQLTEGCGNEACTMEFCASCPTFLRMDNNAAAIKALELYKINAKLCDPH  -0.478 ± 0.073
28. KHLIERYYHQLTEGCGNEACYNEFCASCPTFLRMDNNAAAIKALELYKINAKLCDPH  -0.458 ± 0.14
29. KHLIERYYHQLTEGCGNEACTFEFCASCPTFLRMDNNAAAIKALELYKINAKLCDPH  -0.418 ± 0.09
30. KHLIERYYHQLTEGCGNEACTHEFCASCPTFLRMDNNAAAIKALELYKINAKLCDPH  -0.345 ± 0.12
31. KHLIERYYHQLTEGCGNEACTNEFCESCPTFLRMDNNAAAIKALELYKINAKLCDPH  -0.332 ± 0.083
32. KHLIERYYHQLTEGCGNEACTGEFCASCPTFLRMDNNAAAIKALELYKINAKLCDPH  -0.318 ± 0.062
33. KHLIERYYHQLTEGCGNEACTVEFCASCPTFLRMDNNAAAIKALELYKINAKLCDPH  -0.301 ± 0.061
34. KHLIERYYHQLTEGCGNEACTQEFCASCPTFLRMDNNAAAIKALELYKINAKLCDPH  -0.286 ± 0.087
35. KHLIERYYHQLTEGCGNEACTYEFCASCPTFLRMDNNAAAIKALELYKINAKLCDPH  -0.277 ± 0.088
36. KHLIERYYHQLTEGCGNEACTEEFCASCPTFLRMDNNAAAIKALELYKINAKLCDPH  -0.236 ± 0.072
37. KHLIERYYHQLTEGCGNEACTNEFCHSCPTFLRMDNNAAAIKALELYKINAKLCDPH  -0.163 ± 0.13
38. KHLIERYYHQLTEGCGNEACTNEFCGSCPTFLRMDNNAAAIKALELYKINAKLCDPH  -0.146 ± 0.05
39. KHLIERYYHQLTEGCGNEACTNWFCASCPTFLRMDNNAAAIKALELYKINAKLCDPH  -0.134 ± 0.072
40. KHLIERYYHQLTEGCGNEACMNEFCASCPTFLRMDNNAAAIKALELYKINAKLCDPH  -0.129 ± 0.076
41. KHLIERYYHQLTEGCGNEACTTEFCASCPTFLRMDNNAAAIKALELYKINAKLCDPH  -0.12 ± 0.071
42. KHLIERYYHQLTEGCGNEACTNLFCASCPTFLRMDNNAAAIKALELYKINAKLCDPH  -0.106 ± 0.065
43. KHLIERYYHQLTEGCGNEACWNEFCASCPTFLRMDNNAAAIKALELYKINAKLCDPH  -0.105 ± 0.07
44. KHLIERYYHQLTEGCGNEACTNPFCASCPTFLRMDNNAAAIKALELYKINAKLCDPH  -0.105 ± 0.087
45. KHLIERYYHQLTEGCGNEACTNYFCASCPTFLRMDNNAAAIKALELYKINAKLCDPH  -0.102 ± 0.097
46. KHLIERYYHQLTEGCGNEACTNERCASCPTFLRMDNNAAAIKALELYKINAKLCDPH  -0.095 ± 0.049
47. KHLIERYYHQLTEGCGNEACTNHFCASCPTFLRMDNNAAAIKALELYKINAKLCDPH  -0.09 ± 0.1
48. KHLIERYYHQLTEGCGNEACLNEFCASCPTFLRMDNNAAAIKALELYKINAKLCDPH  -0.086 ± 0.062
49. KHLIERYYHQLTEGCGNEACTNFFCASCPTFLRMDNNAAAIKALELYKINAKLCDPH  -0.084 ± 0.11
50. KHLIERYYHQLTEGCGNEACTNCFCASCPTFLRMDNNAAAIKALELYKINAKLCDPH  -0.082 ± 0.093
51. KHLIERYYHQLTEGCGNEACTNAFCASCPTFLRMDNNAAAIKALELYKINAKLCDPH  -0.077 ± 0.058
52. KHLIERYYHQLTEGCGNEACPNEFCASCPTFLRMDNNAAAIKALELYKINAKLCDPH  -0.076 ± 0.077
53. KHLIERYYHQLTEGCGNEACTNDFCASCPTFLRMDNNAAAIKALELYKINAKLCDPH  -0.062 ± 0.07
54. KHLIERYYHQLTEGCGNEACTNEECASCPTFLRMDNNAAAIKALELYKINAKLCDPH  -0.057 ± 0.068
55. KHLIERYYHQLTEGCGNEACTNEGCASCPTFLRMDNNAAAIKALELYKINAKLCDPH  -0.057 ± 0.048
56. KHLIERYYHQLTEGCGNEACTNKFCASCPTFLRMDNNAAAIKALELYKINAKLCDPH  -0.054 ± 0.078
57. KHLIERYYHQLTEGCGNEACTNEFCCSCPTFLRMDNNAAAIKALELYKINAKLCDPH  -0.053 ± 0.08
58. KHLIERYYHQLTEGCGNEACQNEFCASCPTFLRMDNNAAAIKALELYKINAKLCDPH  -0.046 ± 0.087
59. KHLIERYYHQLTEGCGNEACTNGFCASCPTFLRMDNNAAAIKALELYKINAKLCDPH  -0.045 ± 0.048
60. KHLIERYYHQLTEGCGNEACTNRFCASCPTFLRMDNNAAAIKALELYKINAKLCDPH  -0.045 ± 0.055
61. KHLIERYYHQLTEGCGNEACTNEACASCPTFLRMDNNAAAIKALELYKINAKLCDPH  -0.041 ± 0.056
62. KHLIERYYHQLTEGCGNEACTNEKCASCPTFLRMDNNAAAIKALELYKINAKLCDPH  -0.041 ± 0.073
63. KHLIERYYHQLTEGCGNEACRNEFCASCPTFLRMDNNAAAIKALELYKINAKLCDPH  -0.038 ± 0.051
64. KHLIERYYHQLTEGCGNEACSNEFCASCPTFLRMDNNAAAIKALELYKINAKLCDPH  -0.037 ± 0.059
65. KHLIERYYHQLTEGCGNEACINEFCASCPTFLRMDNNAAAIKALELYKINAKLCDPH  -0.033 ± 0.096
66. KHLIERYYHQLTEGCGNEACTSEFCASCPTFLRMDNNAAAIKALELYKINAKLCDPH  -0.033 ± 0.06
67. KHLIERYYHQLTEGCGNEACTNESCASCPTFLRMDNNAAAIKALELYKINAKLCDPH  -0.033 ± 0.056
68. KHLIERYYHQLTEGCGNEACTNEMCASCPTFLRMDNNAAAIKALELYKINAKLCDPH  -0.031 ± 0.071
69. KHLIERYYHQLTEGCGNEACTNEVCASCPTFLRMDNNAAAIKALELYKINAKLCDPH  -0.03 ± 0.052
70. KHLIERYYHQLTEGCGNEACTNEDCASCPTFLRMDNNAAAIKALELYKINAKLCDPH  -0.026 ± 0.08
71. KHLIERYYHQLTEGCGNEACTNEYCASCPTFLRMDNNAAAIKALELYKINAKLCDPH  -0.026 ± 0.086
72. KHLIERYYHQLTEGCGNEACTNEICASCPTFLRMDNNAAAIKALELYKINAKLCDPH  -0.024 ± 0.083
73. KHLIERYYHQLTEGCGNEACGNEFCASCPTFLRMDNNAAAIKALELYKINAKLCDPH  -0.022 ± 0.049
74. KHLIERYYHQLTEGCGNEACTNTFCASCPTFLRMDNNAAAIKALELYKINAKLCDPH  -0.022 ± 0.081
75. KHLIERYYHQLTEGCGNEACTNMFCASCPTFLRMDNNAAAIKALELYKINAKLCDPH  -0.021 ± 0.079
76. KHLIERYYHQLTEGCGNEACTNQFCASCPTFLRMDNNAAAIKALELYKINAKLCDPH  -0.019 ± 0.087
77. KHLIERYYHQLTEGCGNEACTNETCASCPTFLRMDNNAAAIKALELYKINAKLCDPH  -0.018 ± 0.065
78. KHLIERYYHQLTEGCGNEACTNENCASCPTFLRMDNNAAAIKALELYKINAKLCDPH  -0.017 ± 0.095
79. KHLIERYYHQLTEGCGNEACTNELCASCPTFLRMDNNAAAIKALELYKINAKLCDPH  -0.016 ± 0.055
80. KHLIERYYHQLTEGCGNEACCNEFCASCPTFLRMDNNAAAIKALELYKINAKLCDPH  -0.015 ± 0.08
81. KHLIERYYHQLTEGCGNEACDNEFCASCPTFLRMDNNAAAIKALELYKINAKLCDPH  -0.011 ± 0.08
82. KHLIERYYHQLTEGCGNEACFNEFCASCPTFLRMDNNAAAIKALELYKINAKLCDPH  -0.008 ± 0.12
83. KHLIERYYHQLTEGCGNEACVNEFCASCPTFLRMDNNAAAIKALELYKINAKLCDPH  -0.005 ± 0.058
84. KHLIERYYHQLTEGCGNEACTNSFCASCPTFLRMDNNAAAIKALELYKINAKLCDPH  -0.001 ± 0.064
85. KHLIERYYHQLTEGCGNEACTNEQCASCPTFLRMDNNAAAIKALELYKINAKLCDPH  0.016 ± 0.08
86. KHLIERYYHQLTEGCGNEACHNEFCASCPTFLRMDNNAAAIKALELYKINAKLCDPH  0.018 ± 0.093
87. KHLIERYYHQLTEGCGNEACTNEHCASCPTFLRMDNNAAAIKALELYKINAKLCDPH  0.028 ± 0.097
88. KHLIERYYHQLTEGCGNEACANEFCASCPTFLRMDNNAAAIKALELYKINAKLCDPH  0.029 ± 0.054
89. KHLIERYYHQLTEGCGNEACENEFCASCPTFLRMDNNAAAIKALELYKINAKLCDPH  0.043 ± 0.07
90. KHLIERYYHQLTEGCGNEACKNEFCASCPTFLRMDNNAAAIKALELYKINAKLCDPH  0.059 ± 0.086
91. KHLIERYYHQLTEGCGNEACNNEFCASCPTFLRMDNNAAAIKALELYKINAKLCDPH  0.067 ± 0.093
92. KHLIERYYHQLTEGCGNEACTNEWCASCPTFLRMDNNAAAIKALELYKINAKLCDPH  0.07 ± 0.062
93. KHLIERYYHQLTEGCGNEACTNEFCFSCPTFLRMDNNAAAIKALELYKINAKLCDPH  0.077 ± 0.12
